From US20190376122, “SINGLE-STRAND BINDING PROTEIN” (Universitetet I Tromsø - Norges Arktiske Universitet, published 2019)

Legend:
SrSSB D17K D71K mutant [1] = target: T1, SrSSB D17K D71K mutant (Salinibacter ruber); assay: SPR; 10 mM Tris-HCl pH 7, 10 mM NaCl; Chi2 0.624; details: chain copies: octamer (stated); label: 5'-biotin
T1 chain: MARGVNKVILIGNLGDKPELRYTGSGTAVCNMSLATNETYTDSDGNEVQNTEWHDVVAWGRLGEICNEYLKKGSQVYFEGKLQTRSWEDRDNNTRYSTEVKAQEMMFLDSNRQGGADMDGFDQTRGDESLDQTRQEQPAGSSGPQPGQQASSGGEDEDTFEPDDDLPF
Source text: (§1) Higher binding affinity of the D17K D71K mutant was also confirmed by probing the protein-ssDNA interaction strength directly with the use of Surface Plasmon Resonance on a T200 instrument (BIACORE). This biosensor-based technique enables real-time measurement of binding parameters that enables calculation of equilibrium dissociation constant (KD) of different complexes, including nucleoprotein complexes. To ensure that the measurement is not biased by nucleotide sequence, a randomly generated, 150 nucleotide, 5′-biotynylated ssDNA oligonucleotide was used (Table 2, SEQ ID NO:11). Oligonucleotides were attached to the surface of the SA S-type chip (BIACORE) via biotin-streptavidin interaction. Next, both proteins were run in dilutions: 10 nM, 20 nM, 40 nM, 100 nM, 150 nM, 200 nM, 300 nM over the chip surface in MB buffer (10 mM Tris-HCl pH 7, 10 mM NaCl). The binding event was detected by mass change on the chip surface, which enabled real time measurements of the kinetic parameters of protein-ssDNA interaction.

[2] = target: T2, wild-type Salinibacter ruber SSB (SrSSB) (Salinibacter ruber DSM 13855); assay: SPR; 10 mM Tris-HCl pH 7, 10 mM NaCl; Chi2 0.529; details: chain copies: octamer/dodecamer mixture at 0.15 M NaCl; mostly octamer at 2 M NaCl (stated); label: 5'-biotin
T2 chain: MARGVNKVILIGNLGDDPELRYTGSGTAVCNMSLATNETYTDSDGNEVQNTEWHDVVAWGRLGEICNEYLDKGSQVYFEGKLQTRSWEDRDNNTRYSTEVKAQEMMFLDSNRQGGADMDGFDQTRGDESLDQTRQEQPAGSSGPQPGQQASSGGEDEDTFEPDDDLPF
Source text: as §1

[3] = target: T2, wild-type Salinibacter ruber SSB (SrSSB); assay: structure; PDB 5ODN; d(T)8 soaked; one ssDNA fragment per OB-fold; 0.25 M MgCl2, 1 M ammonium sulphate, pH 8.0; details: chain copies: octamer/dodecamer mixture at 0.15 M NaCl; mostly octamer at 2 M NaCl (stated)
Description: Small, prism-shaped crystals of wild-type S. ruber SSB were obtained in sitting drops consisting of 1 μl of protein solution (5 mg/ml) containing 20 μM of d(T)₇₅ oligonucleotide and 1 μl of reservoir solution (27% w/v PEG 3350, 100 mM Tris-HCl pH 8.0, 0.25M MgCl₂, 1 M ammonium sulphate). Soaking experiments were performed by adding d(T)₈ oligonucleotide to the drops containing formed crystals, to a final concentration of 0.25 μM.

SrSSB D17K D71K mutant [4] = target: T1, SrSSB D17K D71K mutant; assay: beacon dehybridization fluorescence, 2 uM protein; level similar to wt at half the concentration; maintained in high NaCl, KCl, MgCl2; 25 C; details: chain copies: octamer (stated); label: dT-DABCYL and dT-FAM internal; partial hairpin with short 8 bp stem and 24 nt single-stranded loop
Description: (§2) Wild-type S.ruber SSB and the D17K D71K mutant were tested for their ability to bind ssDNA in reaction buffer supplemented with NaCl, KCl, MgCl₂ and CaCl₂. E. coli SSB was used as a well characterized, reference protein.
(§3) Reactions contained 0.125 μM of molecular beacon and 0.25 μM of E. coli SSB tetramer (single binding unit), 4 μM of wt SrSSB and 2 μM of D17K D71K. Reaction mixtures were set up in triplicates in 50 μl of reaction buffer MB (10 mM Tris-HCl pH 7, 10 mM NaCl) containing the fluorescent probe and supplemented with an indicated concentration of NaCl, KCl or MgCl₂ in 96-well plate (Corning). The binding reaction was initiated by addition of the indicated SSB protein, next reactions were incubated at 25° C. for 15′ and the fluorescence was measured with excitation at 495 nm and emission at 520 nm on the Gemini plate reader (Molecular Devices). All graphs were normalized to 100% of initial response, measured in fluorescence units.

E. coli SSB = E. coli SSB (Escherichia coli, UniProt P0AGE0 P0AGE0:2-178); assay: beacon fluorescence, 0.25 uM tetramer; binding decreases significantly with increasing concentration of all tested salts; 25 C; details: chain copies: tetramer (stated); label: dT-DABCYL and dT-FAM internal; partial hairpin with short 8 bp stem and 24 nt single-stranded loop
E. coli SSB, sequence (P0AGE0 2-178, one chain of several): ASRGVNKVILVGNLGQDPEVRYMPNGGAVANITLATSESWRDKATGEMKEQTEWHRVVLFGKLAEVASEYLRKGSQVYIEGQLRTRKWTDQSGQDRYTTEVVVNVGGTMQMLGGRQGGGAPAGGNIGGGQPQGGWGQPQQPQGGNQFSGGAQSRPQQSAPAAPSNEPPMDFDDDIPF
Description: as §2, §3

[5] = target: T2, wild-type Salinibacter ruber SSB (SrSSB); assay: beacon dehybridization fluorescence, 4 uM protein; binding maintained with NaCl to 1 M, KCl to 1 M, MgCl2 to 250 mM; 25 C; details: chain copies: octamer/dodecamer mixture at 0.15 M NaCl; mostly octamer at 2 M NaCl (stated); label: dT-DABCYL and dT-FAM internal; partial hairpin with short 8 bp stem and 24 nt single-stranded loop
Description: as §2, §3

B1: SPR 150nt oligonucleotide (ssDNA)
DNA: AAAGGGTATTGACGGACCAGATGTAGCGTGGCAGAAAAGGGTATTGACGGACCAGATGTAGCGTGGCAGAGACTGAAAGGGTATTGACGGACCAGATGTAGCGTGGCAGAAAAGGGTATTGACGGACCAGATGTAGCGTGGCAGAGACTG
Kd (SrSSB D17K D71K mutant [1]): 19.1 nM
Kd [2]: 34.3 nM

TTTTTTTT (ssDNA) [d(T)8]
binding result [3]: binds

B2: MB molecular beacon (ssDNA)
DNA: GGCCCGTAGGAGGAAAGGACATCTTCTAGCATACGGGCCGTCAAGTTCATGGCCAGTCAAGTCGTCAGAAATTTCGCACCAC
binding result (SrSSB D17K D71K mutant [4]): binds
binding result (E. coli SSB): binds
binding result [5]: binds
